Reference: patent US20130129753A1 (Pfizer, published 2013)

T1: IL-13Rα2 receptor (human, UniProt Q14627 27-380)
T1 sequence (looked up): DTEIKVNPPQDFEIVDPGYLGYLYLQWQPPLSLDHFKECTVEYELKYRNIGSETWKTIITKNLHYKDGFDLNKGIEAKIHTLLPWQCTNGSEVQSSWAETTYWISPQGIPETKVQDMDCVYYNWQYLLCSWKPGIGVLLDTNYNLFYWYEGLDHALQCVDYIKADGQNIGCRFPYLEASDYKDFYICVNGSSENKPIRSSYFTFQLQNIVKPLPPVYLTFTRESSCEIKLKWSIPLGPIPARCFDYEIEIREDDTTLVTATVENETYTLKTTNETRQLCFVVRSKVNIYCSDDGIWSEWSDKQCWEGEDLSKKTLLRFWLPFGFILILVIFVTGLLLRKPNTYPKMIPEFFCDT


How the values were obtained:
IL-13Rα2 receptor [1] = biological target: T1, IL-13Rα2 receptor; test: cell-based or functional assay
IL-13Rα2 receptor [2] = biological target: T1, IL-13Rα2 receptor; test: statement in the example section; no binding assay described
Notch receptor = Notch receptor (human); test: cell-based or functional assay

| Binder | IC50 (ng Ab/mL), viability of A375 cells (IL-13Rα2 receptor [1]) [ng Ab/mL] | IC50 (ng Ab/mL), viability of PC3MM2 cells (IL-13Rα2 receptor [1]) [ng Ab/mL] | IC50 (ng Ab/mL), MTS viability of HCC2429 cells (repeat 1) (Notch receptor) [ng Ab/mL] | IC50 (ng Ab/mL), MTS viability of HCC2429 cells (repeat 2) (Notch receptor) [ng Ab/mL] | IC50 (ng Ab/mL), MTS viability of MDA-MB-468/hNotch cells (repeat 1) (Notch receptor) [ng Ab/mL] | IC50 (ng Ab/mL), MTS viability of MDA-MB-468/hNotch cells (repeat 2) (Notch receptor) [ng Ab/mL] | IC50 (ng Ab/mL), MTS viability of OVCAR3 cells (Notch receptor) [ng Ab/mL] | other results |
| --- | --- | --- | --- | --- | --- | --- | --- | --- |
| IL13Ra2-AB08-v1010-hG1-(C)_mcValCitPABC-#54 (antibody, V domains shown, drug-linker mcValCitPABC-#54 on cysteine (C), positions not given; drug-linker mcValCitPABC-#54 on cysteine (C), positions not given; DAR 3.2 per antibody) VH: EVQLVESGGGLVQPGGSLRLSCAASGFTFSRNGMSWVRQAPGKGLEWVATVSSGGSYIYYADSVKGRFTISRDNAKNSLYLQMNSLRAEDTAVYYCARQGTTALATRFFDVWGQGTLVTVSS VL: DIQMTQSPSSLSASVGDRVTITCKASQDVGTAVAWYQQKPGKAPKLLIYSASYRSTGVPSRFSGSGSGTDFTLTISSLQPEDFATYYCQHHYSAPWTFGGGTKVEIKT | 3.8 | 2.5 | – | – | – | – | – | – |
| IL13Ra2-AB08-v1010-hG1-(C)_Mal(H2O)Peg6C2-0#118 (antibody, V domains shown, drug-linker Mal(H2O)Peg6C2-0#118 on cysteine (C), positions not given; drug-linker Mal(H2O)Peg6C2-0#118 on cysteine (C), positions not given; DAR 2.9 per antibody) VH: EVQLVESGGGLVQPGGSLRLSCAASGFTFSRNGMSWVRQAPGKGLEWVATVSSGGSYIYYADSVKGRFTISRDNAKNSLYLQMNSLRAEDTAVYYCARQGTTALATRFFDVWGQGTLVTVSS VL: DIQMTQSPSSLSASVGDRVTITCKASQDVGTAVAWYQQKPGKAPKLLIYSASYRSTGVPSRFSGSGSGTDFTLTISSLQPEDFATYYCQHHYSAPWTFGGGTKVEIKT | 4.9 | 2.9 | – | – | – | – | – | – |
| IL13Ra2-AB08-v1010-hG1-(C)_mc-#117 (antibody, V domains shown, drug-linker mc-#117 on cysteine (C), positions not given; drug-linker mc-#117 on cysteine (C), positions not given; DAR 3.3 per antibody) VH: EVQLVESGGGLVQPGGSLRLSCAASGFTFSRNGMSWVRQAPGKGLEWVATVSSGGSYIYYADSVKGRFTISRDNAKNSLYLQMNSLRAEDTAVYYCARQGTTALATRFFDVWGQGTLVTVSS VL: DIQMTQSPSSLSASVGDRVTITCKASQDVGTAVAWYQQKPGKAPKLLIYSASYRSTGVPSRFSGSGSGTDFTLTISSLQPEDFATYYCQHHYSAPWTFGGGTKVEIKT | 2.4 | 1.1 | – | – | – | – | – | – |
| IL13Ra2-AB08-v1010-hG1-(C)_mc-#115 (antibody, V domains shown, drug-linker mc-#115 on cysteine (C), positions not given; drug-linker mc-#115 on cysteine (C), positions not given; DAR 4.3 per antibody) VH: EVQLVESGGGLVQPGGSLRLSCAASGFTFSRNGMSWVRQAPGKGLEWVATVSSGGSYIYYADSVKGRFTISRDNAKNSLYLQMNSLRAEDTAVYYCARQGTTALATRFFDVWGQGTLVTVSS VL: DIQMTQSPSSLSASVGDRVTITCKASQDVGTAVAWYQQKPGKAPKLLIYSASYRSTGVPSRFSGSGSGTDFTLTISSLQPEDFATYYCQHHYSAPWTFGGGTKVEIKT | 2.2 | 1.2 | – | – | – | – | – | – |
| IL13Ra2-AB08-v1010-hG1-(C)_mcValCitPABC-#226 (antibody, V domains shown, drug-linker mcValCitPABC-#226 on cysteine (C), positions not given; drug-linker mcValCitPABC-#226 on cysteine (C), positions not given; DAR 3 per antibody) VH: EVQLVESGGGLVQPGGSLRLSCAASGFTFSRNGMSWVRQAPGKGLEWVATVSSGGSYIYYADSVKGRFTISRDNAKNSLYLQMNSLRAEDTAVYYCARQGTTALATRFFDVWGQGTLVTVSS VL: DIQMTQSPSSLSASVGDRVTITCKASQDVGTAVAWYQQKPGKAPKLLIYSASYRSTGVPSRFSGSGSGTDFTLTISSLQPEDFATYYCQHHYSAPWTFGGGTKVEIKT | 2.9 | 1.5 | – | – | – | – | – | – |
| IL13Ra2-AB08-v1010-hG1-(C)_MalPeg6C2-#117 (antibody, V domains shown, drug-linker MalPeg6C2-#117 on cysteine (C), positions not given; drug-linker MalPeg6C2-#117 on cysteine (C), positions not given; DAR 3.3 per antibody) VH: EVQLVESGGGLVQPGGSLRLSCAASGFTFSRNGMSWVRQAPGKGLEWVATVSSGGSYIYYADSVKGRFTISRDNAKNSLYLQMNSLRAEDTAVYYCARQGTTALATRFFDVWGQGTLVTVSS VL: DIQMTQSPSSLSASVGDRVTITCKASQDVGTAVAWYQQKPGKAPKLLIYSASYRSTGVPSRFSGSGSGTDFTLTISSLQPEDFATYYCQHHYSAPWTFGGGTKVEIKT | 3.4 | 3.5 | – | – | – | – | – | – |
| IL13Ra2-AB08-v1010-hG1-(C)_mc-0#118 (antibody, V domains shown, drug-linker mc-0#118 on cysteine (C), positions not given; drug-linker mc-0#118 on cysteine (C), positions not given; DAR 3.2 per antibody) VH: EVQLVESGGGLVQPGGSLRLSCAASGFTFSRNGMSWVRQAPGKGLEWVATVSSGGSYIYYADSVKGRFTISRDNAKNSLYLQMNSLRAEDTAVYYCARQGTTALATRFFDVWGQGTLVTVSS VL: DIQMTQSPSSLSASVGDRVTITCKASQDVGTAVAWYQQKPGKAPKLLIYSASYRSTGVPSRFSGSGSGTDFTLTISSLQPEDFATYYCQHHYSAPWTFGGGTKVEIKT | 2.1 | 1.3 | – | – | – | – | – | – |
| humanized antibody hu08 (antibody, V domains shown, Unconjugated antibody; also called hu08v1.0/1.0; IL13Ra2-AB08-v1010-hG1) VH: EVQLVESGGGLVQPGGSLRLSCAASGFTFSRNGMSWVRQAPGKGLEWVATVSSGGSYIYYADSVKGRFTISRDNAKNSLYLQMNSLRAEDTAVYYCARQGTTALATRFFDVWGQGTLVTVSS VL: DIQMTQSPSSLSASVGDRVTITCKASQDVGTAVAWYQQKPGKAPKLLIYSASYRSTGVPSRFSGSGSGTDFTLTISSLQPEDFATYYCQHHYSAPWTFGGGTKVEIKT | – | – | – | – | – | – | – | binding result (IL-13Rα2 receptor [2]): binds |
| IL13Ra2-AB08-v1010-hG1-(C)_mcValCitPABC-#112 (antibody, V domains shown, drug-linker mcValCitPABC-#112 on cysteine (C), positions not given; drug-linker mcValCitPABC-#112 on cysteine (C), positions not given; DAR 4 per antibody) VH: EVQLVESGGGLVQPGGSLRLSCAASGFTFSRNGMSWVRQAPGKGLEWVATVSSGGSYIYYADSVKGRFTISRDNAKNSLYLQMNSLRAEDTAVYYCARQGTTALATRFFDVWGQGTLVTVSS VL: DIQMTQSPSSLSASVGDRVTITCKASQDVGTAVAWYQQKPGKAPKLLIYSASYRSTGVPSRFSGSGSGTDFTLTISSLQPEDFATYYCQHHYSAPWTFGGGTKVEIKT | 2.2 | 1.2 | – | – | – | – | – | – |
| Notch-28-v1010-hG1-(C)_mcValCitPABC-#54 (antibody, human IgG1, kappa, V domains shown, drug-linker mcValCitPABC-#54 on cysteine (C), positions not given; drug-linker mcValCitPABC-#54 on cysteine (C), positions not given; DAR 3.9 per antibody) VH: EVQLVESGGGLVQPGGSLRLSCAASGFTFRDYGMTWVRQAPGKGLEWVAYISSGSNYIYYAEAVKGRFTISRDNAKNSLYLQMNSLRAEDTAVYYCARRGPFVLDAWGQGTLVTVSS VL: DIQMTQSPSSLSASVGDRVTITCKASQSINRYLHWYQQKPGKAPKLLIYNANGLQTGVPSRFSGSGSGTDFTLTISSLQPEDFATYYCLQHNTWPDTFGGGTKVEIKR | – | – | 473 | 2940 | 3.2 | 3 | 306 | IC50 (ng Ab/mL), MTS viability of MDA-MB-468 cells (Notch receptor): 6540 ng Ab/mL; IC50 (ng Ab/mL), MTS viability of U2OS/hNotch cells (Notch receptor): 1330 ng Ab/mL |
| Notch-28-v1010-hG1-(C)_mcValCitPABC-#112 (antibody, human IgG1, kappa, V domains shown, drug-linker mcValCitPABC-#112 on cysteine (C), positions not given; drug-linker mcValCitPABC-#112 on cysteine (C), positions not given; DAR 3.9 per antibody) VH: EVQLVESGGGLVQPGGSLRLSCAASGFTFRDYGMTWVRQAPGKGLEWVAYISSGSNYIYYAEAVKGRFTISRDNAKNSLYLQMNSLRAEDTAVYYCARRGPFVLDAWGQGTLVTVSS VL: DIQMTQSPSSLSASVGDRVTITCKASQSINRYLHWYQQKPGKAPKLLIYNANGLQTGVPSRFSGSGSGTDFTLTISSLQPEDFATYYCLQHNTWPDTFGGGTKVEIKR | – | – | 148 | 2050 | 1.3 | 3 | 17 | – |
| Notch-75-v1913-hG1-(C)_mcValCitPABC-#54 (antibody, human IgG1, kappa, V domains shown, drug-linker mcValCitPABC-#54 on cysteine (C), positions not given; drug-linker mcValCitPABC-#54 on cysteine (C), positions not given; DAR 3.8 per antibody) VH: EVQLVESGGGLVQPGGSLRLSCAASGYAFTDYWMTWVRQAPGKGLEWVAEISPNSGGTNFNEKFKGRFTISVDNAKNSLYLQMNSLRAEDTAVYYCARGEIRYNWFAYWGQGTLVTVSS VL: DIQMTQSPSSLSASVGDRVTITCKASQNVGNNIAWYQQKPGKAPKLLIYYASNRYTGVPSRFSGSGYGTDFTLTISSLQPEDFATYYCQRLYNSPFTFGGGTKVEIKR | – | – | 611 | 3300 | 37 | 36 | 515 | IC50 (ng Ab/mL), MTS viability of MDA-MB-468 cells (Notch receptor): 7000 ng Ab/mL; IC50 (ng Ab/mL), MTS viability of U2OS/hNotch cells (Notch receptor): 523 ng Ab/mL |
| Notch-75-v1913-hG1-(C)_mcValCitPABC-#112 (antibody, human IgG1, kappa, V domains shown, drug-linker mcValCitPABC-#112 on cysteine (C), positions not given; drug-linker mcValCitPABC-#112 on cysteine (C), positions not given; DAR 4.2 per antibody) VH: EVQLVESGGGLVQPGGSLRLSCAASGYAFTDYWMTWVRQAPGKGLEWVAEISPNSGGTNFNEKFKGRFTISVDNAKNSLYLQMNSLRAEDTAVYYCARGEIRYNWFAYWGQGTLVTVSS VL: DIQMTQSPSSLSASVGDRVTITCKASQNVGNNIAWYQQKPGKAPKLLIYYASNRYTGVPSRFSGSGYGTDFTLTISSLQPEDFATYYCQRLYNSPFTFGGGTKVEIKR | – | – | 214 | 630 | 26 | 25 | 254 | – |
